Consider one protein from article PMC5714209 (Nucleic Acids Research, 2017).

This data set deals with the molecule itself. Nature of the data set: SEC. A general note: In gel filtration, larger molecules generally elute earlier.

B1: full-length APOBEC3B (enzyme)
chain: not shown
As to B1, the “stoichiometry N” value stood at 4.

Usually stoichiometry N stands for the number of molecules, sites or subunits per partner or assembly.
